Assay results: paper PMC3418399

Assays:
[1] = target: Candida albicans ATP-binding cassette transporter CaCdr1p (Candida albicans) (UniProt Q5ANA3)
[2] = target: Candida albicans ATP-binding cassette transporter CaCdr1p (Candida albicans) (UniProt Q5ANA3); remark: listed apart in the source

Chain of Candida albicans ATP-binding cassette transporter CaCdr1p (Candida albicans) (Q5ANA3 whole entry): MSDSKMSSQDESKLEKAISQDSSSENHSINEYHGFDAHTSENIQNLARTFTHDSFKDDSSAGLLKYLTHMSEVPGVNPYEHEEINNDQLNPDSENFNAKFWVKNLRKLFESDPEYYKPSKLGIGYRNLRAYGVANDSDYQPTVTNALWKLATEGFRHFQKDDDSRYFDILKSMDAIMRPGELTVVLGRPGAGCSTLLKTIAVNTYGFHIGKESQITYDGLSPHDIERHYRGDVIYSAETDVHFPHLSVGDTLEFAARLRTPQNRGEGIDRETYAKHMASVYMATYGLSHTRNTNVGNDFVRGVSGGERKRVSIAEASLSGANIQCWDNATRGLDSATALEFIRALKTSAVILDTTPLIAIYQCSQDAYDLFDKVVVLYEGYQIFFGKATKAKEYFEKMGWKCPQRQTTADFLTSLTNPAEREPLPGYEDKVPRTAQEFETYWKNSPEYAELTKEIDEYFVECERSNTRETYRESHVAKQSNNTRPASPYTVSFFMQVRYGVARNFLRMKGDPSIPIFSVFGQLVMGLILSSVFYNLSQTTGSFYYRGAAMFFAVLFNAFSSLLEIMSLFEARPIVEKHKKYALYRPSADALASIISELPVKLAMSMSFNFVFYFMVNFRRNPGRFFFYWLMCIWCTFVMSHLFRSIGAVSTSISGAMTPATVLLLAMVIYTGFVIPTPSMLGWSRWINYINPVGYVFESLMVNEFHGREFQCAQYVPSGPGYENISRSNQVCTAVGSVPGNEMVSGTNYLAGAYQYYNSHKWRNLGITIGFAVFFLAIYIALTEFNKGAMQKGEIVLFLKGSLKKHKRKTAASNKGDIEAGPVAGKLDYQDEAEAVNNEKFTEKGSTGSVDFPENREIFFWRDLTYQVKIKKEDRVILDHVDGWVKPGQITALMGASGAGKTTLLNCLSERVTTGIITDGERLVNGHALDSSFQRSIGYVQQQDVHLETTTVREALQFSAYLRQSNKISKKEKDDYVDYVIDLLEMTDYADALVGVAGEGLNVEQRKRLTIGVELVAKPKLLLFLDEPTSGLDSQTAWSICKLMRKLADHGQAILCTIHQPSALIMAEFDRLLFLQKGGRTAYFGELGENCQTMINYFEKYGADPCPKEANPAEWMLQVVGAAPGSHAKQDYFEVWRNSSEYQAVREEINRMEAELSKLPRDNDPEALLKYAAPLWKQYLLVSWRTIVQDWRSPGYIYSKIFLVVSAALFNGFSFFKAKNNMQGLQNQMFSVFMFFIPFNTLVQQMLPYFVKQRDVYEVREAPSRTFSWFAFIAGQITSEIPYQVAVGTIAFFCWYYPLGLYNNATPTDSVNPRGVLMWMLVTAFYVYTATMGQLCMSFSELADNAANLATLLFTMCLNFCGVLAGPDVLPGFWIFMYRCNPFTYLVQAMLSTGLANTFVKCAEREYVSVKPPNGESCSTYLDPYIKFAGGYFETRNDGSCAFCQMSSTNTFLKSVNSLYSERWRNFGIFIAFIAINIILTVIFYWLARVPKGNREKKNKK

| Substance | IC50 of inhibition of the ATPase activity of CaCdr1p [1] [µM] | IC50 of inhibition of the CaCdr1p ATPase activity, plasma membrane preparations [2] [µM] |
| --- | --- | --- |
| RC1, naked D-octapeptide D-NH2-FFKWQRRR-CONH2 | > 200 | – |
| RC21v3, D-NH2-FFKWQR(Mtr)RR-CONH2 (peptide) | – | 1.1 |
